From patent US8198021 come the findings set out here.

In general, Ki refers to the equilibrium dissociation constant of an inhibitor or competing ligand from its target.

For data set [1], the system named is microcin J25.
The target in data set [2] is Escherichia coli RNA polymerase (RNAP) holoenzyme (Escherichia coli) (UniProt P0A7Z4). Briefly: fluorescence-detected abortive initiation assay (tri- and tetranucleotide synthesis), fit to partial-competitive inhibition.
The target is the same in data set [3]. The data set can be described thus: transcription assay at four NTP concentrations, fit to partial-competitive inhibition (7-mer and 8-mer abortive products); Ki called the reciprocal of the equilibrium binding constant for the MccJ25-RNAP interaction.

For the substance “Escherichia coli RNA polymerase (RNAP) holoenzyme”, in data set [1], the α, the factor by which MccJ25 increases KM for NTPs (7-mer and 8-mer abortive products) turned out to be 15; the “α, the factor by which MccJ25 increases KM for NTPs (fluorescence-detected abortive initiation, tri- and tetranucleotide synthesis)” value was “α 8.7±2”.

microcin J25 (peptide): the Ki was found to be 1200 nM in data set [2] and 1400 nM in data set [3].
